{
  "source": "patent US8940864",
  "molecular_target": "C-CA (W184A/M185A) (HIV-1) (UniProt P04591)",
  "assay": "NMR, slow exchange kinetics of binding",
  "note": "pKd: −log10 of the molar value.",
  "data": [
    {"substance": "NYAD-1 (peptide)", "values": [
      {"measurement": "pKd", "value": "> 5.00"}
    ]}
  ]
}
